Consider one molecule from patent US20210403542A1 (BIOARCTIC, published 2021).

In one assay the target is γ-synuclein monomer (UniProt O76070 1-127). As to the kind of experiment: inhibition ELISA; concentration of γ-synuclein monomer varied against BAN0805 (hu47-IgG4).
Assay [1] addresses T1, human α-synuclein protofibril (human, UniProt P37840 1-140). As to the kind of experiment: SPR, Biacore 8K; PF coated on chip, antibody injected, single cycle kinetics. Background: Surface plasmon resonance follows binding to a sensor surface in real time, without labels.
From the text: (§1) Due to feasibility issues caused by the complexity of the target antigen in combination with pronounced avidity dependence of the antibodies, different assay set-ups were used to assess α-synuclein protofibril and monomer binding, respectively.
The target of the next assay is β-synuclein monomer (UniProt Q16143 1-134). As to the kind of experiment: inhibition ELISA; concentration of β-synuclein monomer varied against BAN0805 (hu47-IgG4). (An ELISA detects its analyte on a solid surface through an enzyme-linked reagent.)
In assay [2] the target is T1, human α-synuclein protofibril. Kind of assay: SPR, Biacore 8K; ratio of KD values.
From the text: as §1
The target in a further assay is T2, Aβ-protofibril (UniProt P05067 672-713).
T2 construct: also called Aβ-protofibrils
Kind of assay: inhibition ELISA; concentration of Aβ-protofibril varied against BAN0805 (hu47-IgG4).

Assay [3] deals with T1, human α-synuclein protofibril. Kind of assay: inhibition ELISA.
Assay [4] shares this target. Kind of assay: inhibition ELISA; protofibril concentration as monomer equivalents.
A further assay concerns the target α-synuclein monomer (human, UniProt P37840 1-140). Kind of assay: SPR, Biacore 8K; antibody captured by anti-human antibody, monomer injected, single cycle kinetics.

Sequence of β-synuclein monomer (Q16143 whole entry): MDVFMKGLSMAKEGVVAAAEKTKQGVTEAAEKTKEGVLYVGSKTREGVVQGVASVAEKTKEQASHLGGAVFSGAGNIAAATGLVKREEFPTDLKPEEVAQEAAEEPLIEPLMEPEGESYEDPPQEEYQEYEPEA
Sequence of γ-synuclein monomer (O76070 whole entry): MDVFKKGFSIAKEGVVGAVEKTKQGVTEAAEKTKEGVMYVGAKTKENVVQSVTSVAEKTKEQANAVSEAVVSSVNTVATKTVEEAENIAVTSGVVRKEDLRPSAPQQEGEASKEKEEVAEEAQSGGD
From the text for α-synuclein monomer: as §1

B1: BAN0805 (antibody, human IgG4 S228P, kappa, V domains shown)
VH: QVQLQESGPGLVKPSETLSLTCTVSGFSLTSYGVHWIRQPPGKGLEWIGVIWRGGSTDYSAAFMSRLTISKDTSKNQVSLKLSSVTAADTAVYYCAKLLRSVGGFADWGQGTMVTVSS
VL: DIVMTQSPLSLPVTPGEPASISCRSSQTIVHNNGNTYLEWYLQKPGQSPQLLIYKVSNRFSGVPDRFSGSGSGTDFTLKISRVEAEDVGVYYCFQGSHVPFTFGQGTKLEIKR
notes: Humanized variant of mAb47, human IgG4 (pXC-IgG4Pro(deltaK)) / kappa; also called hu47-IgG4
As to B1, the binding result with γ-synuclein monomer was “no binding (tested: last point just above the 10000 nM tick)”; with β-synuclein monomer, “no binding (tested: last point just above the 10000 nM tick)”; with Aβ-protofibril, “no binding”. Besides, the Kd – broadly, a measure of binding affinity in units of concentration – in assay [1] came to 0.0185 nM; in the assay with α-synuclein monomer, 2190 nM. In addition, in assay [2], the “selectivity PF vs. monomeric α-synuclein (fold)” value stood at 110000 fold. In assay [3], the “selectivity for α-synuclein protofibril versus monomer (IC50 monomer / IC50 PF)” value was found to be 910 fold. Besides, the half-maximal inhibitory concentration (IC50) (commonly the midpoint of a concentration-inhibition curve) in assay [4] stood at 2.2 nM.
